Source: US20190352404A1 (SUZHOU ALPHAMAB, published 2019)
Substitutions are numbered along the chain they refer to.

B1: KN035 single domain antibody mutant m3 (VHH)
VHH: QVQLQESGGGLVQPGGSLRLSCAASGKMSSRRCMAWFRQAPGKERERVADVNPNSGGSIYNQRFKGRFTISQNNAKSTVYLQMNSLKPEDTAMYYCAADSFEDPTCTLVTSSGAFQYWGQGTQVTVSS
notes: not shown: C-terminal His-tag (obtained 'by the above method')
B2: KN035 sdAb mutant 1 (VHH)
VHH: QVQLQESGGGSVQAGGSLRLSCAASGKMSSRRCMGWFRQAPGKERVGVAAIDSDGTTKYADSMKGRFTISKDNAKNTLDLQMNSLKPEDTAMYYCVADSFEDPTCTLVTSSGAFQYRGQGTQVTVSS
notes: Expressed in HEK293, IMAC purified; not shown: C-terminal His-tag
B3: KN035 sdAb mutant 2 (VHH)
VHH: B2 VHH with E44Q, A50T, K58R, A60V, M63V, V96A
notes: not shown: C-terminal His-tag

Molecular target: T1, hPD-L1-Fc (human, UniProt Q9NZQ7 20-239, limits assumed)
T1 construct: also called PDL1-Fc fusion protein; human PDL1 protein; not shown: Fc part
Experiment: BLI (Octet K2), hPD-L1-Fc on AHC sensor, sdAb variant in solution; against wild-type KN035

T1 sequence (Q9NZQ7 other isoform, or with tags, fused parts or gaps limits assumed): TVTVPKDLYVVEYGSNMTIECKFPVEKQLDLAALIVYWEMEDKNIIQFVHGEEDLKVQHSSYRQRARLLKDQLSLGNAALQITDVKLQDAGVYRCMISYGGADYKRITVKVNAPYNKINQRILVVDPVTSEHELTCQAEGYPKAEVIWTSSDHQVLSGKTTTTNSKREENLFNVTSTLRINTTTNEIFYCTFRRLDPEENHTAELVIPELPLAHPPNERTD

Row | KD/KD wt | Binder
1 | 2.01 ratio | B1
2 | 1.21 ratio | B2
3 | 1.73 ratio | B3

Molecular target: T1, hPD-L1-Fc
Experiment: competitive ELISA, hPD-L1-Fc coated, competitor hPD-1-hIgG-biotin 10 ug/ml; against wild-type KN035

Row | Relative blocking activity (EC50 wt/EC50 m × 100%) | Binder
4 | 91% | B1
5 | 80% | B2
6 | 71% | B3
